# Experiment: soluble on expression in E. coli; label from the status in PepcDB or PDB records
row,Sequence,soluble on expression in E. coli
1,MAHHHHHHMVIFDDVENSNRVGGNEGGIRPIFVQLTPNAPLPSEEYLRLVALSKAPPPPDSEGSTLHSARNCRERSARVNGRRSPTKTNVRPRPPVTATQKWGDNAMSLINSKEEAVQRHEFALHVRGARYCRLLETMLDSSDLQLEPLHYDPKDPNMGRRPNGTEGNPANSLPPVILPQATQKGCVALFTYLDLITKRVPSMLSKPLRAPLEELVQPWELEFLLYSCMGDDVRNAITHIDEDGTADKRGRAPTNDTRPSYYSTILEKAPRSVDLLLEVALLSDFLLVEPLRQLTCAFIASLALNASSEEELLQLSGLQRPMTEDELEPLYYQFPFLRPDNHAKN,not soluble
2,MAHHHHHHMTAQILLYTDCIPQVFSPLKGEREGLLDSQQFANITTNCNTAFACGDPSLNTRISPYMRLSYFHNVTRIRNRKAHISHDIAGDCYVHYKTTCGGIILRPNVRLRPRGRSHRNRVSPRNVIFAAIFLNHRRNGLNRHIDRLNQILQKIIGNIAQTRYG,not soluble
3,MSKISSVLIDLSGTIHIEEFAIPGAQTALELLRQHAKVKFVTNTTKESKRLLHQRLINCGFKVEKEEIFTSLTAARDLIVKNQYRPFFIVDDRAMEDFEGISTDDPNAVVIGLAPEKFNDTTLTHAFRLIKEKKASLIAINKGRYHQTNAGLCLGPGTYVAGLEYSAGVEATIVGKPNKLFFESALQSLNENVDFSSAVMIGDDVNDDALGAIKIGMRAILVKTGKFRDGDELKVKNVANSFVDAVNMIIENKVENG,not soluble
4,MLSTIEYLSLLRKYMRENAVKYGISRMGIFGSVARGEQHDGSDVDICVEIDRPSIFTLVHIKEELEKLFKCPVDVVRLRNNMDELLRNCINKDGIYV,not soluble
5,MATVAFQTLGCKVNHYETEAIWQLFKGEGYEKVDFEQMADVYVINTCTVTNTGDKKSRQVIRRAIRKNPDAVICVTGCYAQTSPAEVMAIPGVDIVVGTQDRKKMLEYIEQYKKERQPINGVGNIMKSRVYEELDVPAFTDRTRASLKIQEGCNNFCTFCIIPWARGLMRSRDPKEVIKQAEQLVQAGYKEIVLTGIHTGGYGEDLKDYSLARLLEDLEQVNGLKRIRISSIEASQLTDEVIEVIDRSTKVVRHLHIPLQSGSDTVLKRMRRKYTMAFFAERLERLREALPGLAVTSDVIVGFPGETEAEFQETYDFIAKHKFSELHVFPYSKRTGTPAARMEDQVNEDVKNERVHRLIQLSDQLAKEYASQFEGEVLEMIPEERDKEEPNSGLYVGYTDNYLKVKIPATDEMIGKLVKVKITKAGYPYNEGEFVRVLDEEPQAVAHGLEHHHHHH,soluble
6,MGDTMQQRLTQDLTQFLASLPEDDRIKAINEIRMAIHQVSPFREEPVDCVLWVKNSQLMPNDYNPNNVAPPEKKLLQKSIEIDGFTQPIVVTHTDKNAMEIVDGFHRHEIGKGSSSLKLRLKGYLPVTCLEGTRNQRIAATIRHNRARGRHQITAMSEIVRELSQLGWDDNKIGKELGMDSDEVLRLKQINGLQELFADRQYSRAWTVK,soluble
7,MGSDKIHHHHHHMKPRNESVILLHGLARTRGSMEKMEHALSAKGYQCVNLGYPSTQFDIETLAGEHIDKALSQCRGERVHFVTHSMGGILVRQYLSQHTLPALGRVVMLGPPNRGSEVVDSLKDFPGFKWINGPAGLQLGTEEESVPNRLGKAHFEVGVIAGSRSVNLLLSTLLPWPNDGKVSVARTHLEGMRDHISLAVTHPFMMNNPSVIAQTAYFLAHGRFQR,not soluble
8,MEENTEQRVDLTLFSEKIQELKDQIASVIVGQEQTVDLVLAAILANGHVLIEGVPGVAKTLLARLTARLIDADFSRIQFTPDLMPSDVLGTTVFNMKTNDFDFHQGPIFADIVLVDEINRAPAKTQAALFEVMEERQISIDGITHKMGELYTILATQNPVEQEGTYKLPEAQLDRFLMKITMDYPSLEEEVDILERHHTNASLIKLDDIKPAITKEELLSLRAFMNQVFVDRTLLQYIALIVQQTRTSKAVYLGASPRASVAMLQASKAYALLQGRDFVTPEDIKFVAPYVLQHRLILTAEAEMEGYSPVKVTQRLIDKVEVPKLEHHHHHH,soluble
9,MSLKKRYDLSYNFNVHEVPRAALEERFDPKSPTKRSIAIVFEEIKNWISDIPYVISLSYTDAQDKSKKIMNVTTDSLTKVLQADLPGSYNLEYIESKFCPGEIVGKSNVLVTMPVAPTMEVKSFPILDQCVGQVGLNFELSFTGAPPYYYNTKIYKLENGERKLYDAKRYTSEGTRNRFSYSPPKEGNYEIVFDTVSNKLFTEPIKLEPVKEYTFKTSMRVKPSASLKLHHDLKLCLGDHSSVPVALKGQGPFTLTYDIIETFSSKRKTFEIKEIKTNEYVIKTPVFTTGGDYILSLVSIKDSTGCVVGLSQPDAKIQVRRDEGHHHHHH,soluble
10,MISAKEQAKKGQIIYRYILLKIQSFKWPAGTRIFSERQLEIRFASSRSLIRTILNTLLGKDLIRHTKGNAGYFVAKNAGFSFFHKTQDNKLPKWAKLSTLMKNHLREVDRDVFSSIDSGVDFGNFKGLEAKLFDENKKNFLNLSFFGKDDVLQIFSEQNLQEQFFKDFAYNGIVVERKSSLICVDDETKNLLIYDLFYDDNNKFIVAMRSEYLNPRIKIINA,soluble
11,MHSIYKFSTCNVHRESPLRVRVEDLTVAYNGEPVLSGVNLEFRGPGLVQIIGPNGAGKTTFLKAILGLIKPARGRVFLDGFEATGRPEMVGRYAGYVPQNPSAPKLSPMTVREFVETSLRLRGVTRARERAVEVLHTLGIRGEVLESRLWELSMGMLQRVFIARAIAPDPKMLVMDEPLASVDPAGRMEIARIIAGLARERLVLMTSHDPSLLLGHTDIIVVINRDLIASGPPEEVYREDVLRRVYGESVARGLVLAGEGGAHG,soluble
12,MDVPADSHIKYEDAIDYWTDVDATVDGVLGGYGEGTVVPTMDVLGSNNFLRKLKSRMLPQENNVKYAVDIGAGIGRVSKTMLHKHAAKIDLVEPVKPFIEQMHVELAELKDKGQIGQIYEVGMQDWTPDAGKYWLIWCQWCVGHLPDAELVAFLKRCIVGLQPNGTIVVKENNTPTDTDDFDETDSSVTRSDAKFRQIFEEAGLKLIASERQRGLPRELYPVRMYALKPMPN,soluble
13,LSAQEIIQYISDAKKSTPLKVYVNGHFENVTFPESFKVFGSEHSKVIFCEANEWKQFYQQNHSLITELEIEMDRRNSAIPLKDLTNTN,soluble
14,MTVLQLPNIPRITLLGTTALLFEAPGELDLAPQQRIWALADLSKNWPQVREAVPGMNNLMLTFETPPRDLSGLKTRLMEAWEHCQPLPLQGRIIELPVVYGGDGGPHMADVIAHTGLDIETIANLHCEPLYPVYALGSHPGYCYLGGMDLRLATPRRKVPVLDIGAGSVSIGGVQTGISASAGPSGWNTIGRTEMVFFDADQHPPALLQPGDQLRLRIERIIRLEHHHHHH,not soluble
15,MAGETDLQKILRESNDQFTAQMFSEVVKANPGQNVVLSAFSVLPPLGQLALASVGESHDELLRALALPNDNVTKDVFADLNRGVRAVKGVDLKMASKIYVAKGLELNDDFAAVSRDVFGSEVQNVDFVKSVEAAGAINKWVEDQTNNRIKNLVDPDALDETTRSVLVNAIYFKGSWKDKFVKERTMDRDFHVSKDKTIKVPTMIGKKDVRYADVPELDAKMIEMSYEGDQASMIIILPNQVDGITALEQKLKDPKALSRAEERLYNTEVEITLPKFKIETTTDLKEVLSNMNIKKLFTPGAARLENLLKTKESLTVDAAIQKAFIEVNEEGAEAAAANAFGIVPKSLILYPEVHIDRPFYFELKIDGIPMFNGKVIEP,soluble
16,VIGDMNPDFLGSVSTGLTWKNLSFRMALDMRFGGKVAVYGNRYGTAYGWTESSLKFRDEAHGGMTWTSQYLNADGSQSGSYGVTYHDGMIPQGIFASGTQVTGIDGKTHDVSGMSYQQAYENGILEPMHAASYYNYANQWSTGVTNDGWIHDLKYIALREITVGYTFPSNIAGKIGAKRLGVSFSARNLGYLYNSLPNDVNPEGVRGNLSGEFRIRSFDPYTANYTMTINVGF,not soluble
17,GPLGSVGSWECPVCCVSNKAEDSRCVSCTSEKPGLVSASSSNSVPVSLPSGGCLGLDKFKKPEGSWDCEVCLVQNKADSTKCIACESAKPGT,soluble
